Data reported in patent US20250066745A1, “MUTANTS AND USE THEREOF” (BGI SHENZHEN, priority 2021, published 2025).
Where a chain is given by its changes, count along the chain named. In names and notes the source's numbering stands.

B1: N27D V29Y A30G V31L A32V S33K A36D L40V: Gaussia luciferase mutant (protein)
chain: MGVKVLFALICIAVAEAKPTENNEDFDIYGLVKNFDTTDVDADRGKLPGKKLPLEVLKEMEANARKAGCTRGCLICLSHIKCTPKMKKFIPGRCHTYEGDKESAQGGIGEAIVDIPEIPGFKDLEPMEQFIAQVDLCVDCTTGCLKGLANVQCSDLLKKWLPQRCATFASKIQGQVDKIKGAGGD
modifications: SIGNAL (1)..(17)
notes: Gaussia luciferase mutant
B2: A42G Q152H T167G S170T G174N K178S A182Y G183A: Gaussia luciferase mutant (protein)
chain: MGVKVLFALICIAVAEAKPTENNEDFNIVAVASNFATTDLDGDRGKLPGKKLPLEVLKEMEANARKAGCTRGCLICLSHIKCTPKMKKFIPGRCHTYEGDKESAQGGIGEAIVDIPEIPGFKDLEPMEQFIAQVDLCVDCTTGCLKGLANVHCSDLLKKWLPQRCAGFATKIQNQVDSIKGYAGD
modifications: SIGNAL (1)..(17)
notes: Gaussia luciferase mutant
B3: N27Y V29G A30D V31L A32V S33V A36G T37D L40F Y97*: Gaussia luciferase mutant (protein)
chain: MGVKVLFALICIAVAEAKPTENNEDFYIGDLVVNFGDTDFDADRGKLPGKKLPLEVLKEMEANARKAGCTRGCLICLSHIKCTPKMKKFIPGRCHTEGDKESAQGGIGEAIVDIPEIPGFKDLEPMEQFIAQVDLCVDCTTGCLKGLANVQCSDLLKKWLPQRCATFASKIQGQVDKIKGAGGD
modifications: SIGNAL (1)..(17)
notes: Gaussia luciferase mutant
B4: K66N E102D S103T E110G L124M V138E: Gaussia luciferase mutant (protein)
chain: MGVKVLFALICIAVAEAKPTENNEDFNIVAVASNFATTDLDADRGKLPGKKLPLEVLKEMEANARNAGCTRGCLICLSHIKCTPKMKKFIPGRCHTYEGDKDTAQGGIGGAIVDIPEIPGFKDMEPMEQFIAQVDLCEDCTTGCLKGLANVQCSDLLKKWLPQRCATFASKIQGQVDKIKGAGGD
modifications: SIGNAL (1)..(17)
notes: Gaussia luciferase mutant
B5: K66N H79K P84K E102K S103I E110P L124M: Gaussia luciferase mutant (protein)
chain: B4 chain with H79K, P84K, D102K, T103I, G110P, E138V
modifications: SIGNAL (1)..(17)
notes: Gaussia luciferase mutant
B6: P84K E102A: Gaussia luciferase mutant (protein)
chain: B4 chain with N66K, P84K, D102A, T103S, G110E, M124L, E138V
modifications: SIGNAL (1)..(17)
notes: Gaussia luciferase mutant
B7: K66N H79K E102D E110P L124M: Gaussia luciferase mutant (protein)
chain: B4 chain with H79K, T103S, G110P, E138V
modifications: SIGNAL (1)..(17)
notes: Gaussia luciferase mutant
B8: K66R H79K P84K E102D S103I A104G L124M V138E: Gaussia luciferase mutant (protein)
chain: B4 chain with N66R, H79K, P84K, T103I, A104G, G110E
modifications: SIGNAL (1)..(17)
notes: Gaussia luciferase mutant
B9: P84A E102A S103I E110P D123N: Gaussia luciferase mutant (protein)
chain: B4 chain with N66K, P84A, D102A, T103I, G110P, D123N, M124L, E138V
modifications: SIGNAL (1)..(17)
notes: Gaussia luciferase mutant
B10: K66N P84L E102A S103I A104G E110P D123N L124M V138D: Gaussia luciferase mutant (protein)
chain: B4 chain with P84L, D102A, T103I, A104G, G110P, D123N, E138D
modifications: SIGNAL (1)..(17)
notes: Gaussia luciferase mutant
B11: P53L: Gaussia luciferase mutant (protein)
chain: B4 chain with P53L, N66K, D102E, T103S, G110E, M124L, E138V
modifications: SIGNAL (1)..(17)
notes: Gaussia luciferase mutant
B12: K66R P84A E102K A104G E110A L124M V138E: Gaussia luciferase mutant (protein)
chain: B4 chain with N66R, P84A, D102K, T103S, A104G, G110A
modifications: SIGNAL (1)..(17)
notes: Gaussia luciferase mutant
B13: P84A E102A S103I D123L V138D: Gaussia luciferase mutant (protein)
chain: B4 chain with N66K, P84A, D102A, T103I, G110E, D123L, M124L, E138D
modifications: SIGNAL (1)..(17)
notes: Gaussia luciferase mutant
B14: K66N P84A E102K S103I E110G L124M V138E: Gaussia luciferase mutant (protein)
chain: B4 chain with P84A, D102K, T103I
modifications: SIGNAL (1)..(17)
notes: Gaussia luciferase mutant
B15: K66N H79K P84A E102E S103I D123N L124M V138E K159N I179*: Gaussia luciferase mutant (protein)
chain: MGVKVLFALICIAVAEAKPTENNEDFNIVAVASNFATTDLDADRGKLPGKKLPLEVLKEMEANARNAGCTRGCLICLSKIKCTAKMKKFIPGRCHTYEGDKEIAQGGIGEAIVDIPEIPGFKNMEPMEQFIAQVDLCEDCTTGCLKGLANVQCSDLLKNWLPQRCATFASKIQGQVDKKGAGGD
modifications: SIGNAL (1)..(17)
notes: Gaussia luciferase mutant

assay: Luminescence activity assay of purified Gaussia luciferase mutants on coelenterazine derivative ZS2; type: biochemical; set-up: key to Activity of mutant relative to wild-type Gaussia luciferase without the signal peptide: ratio of mutant luminescence intensity to wild-type Gaussia luciferase; conditions: Substrate ZS2 (Table 16)
Method in brief: (§1)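 Readout: luminescence intensity, as ratio to signal-peptide-free wild-type enzyme. Enzyme 1 μg/mL, substrate 100 μM stock, 10 μL + 90 μL; buffer 50 mM Tris-HCl pH 8.0, 100 mM NaCl, 0.1% Tween-20.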

| Activity of mutant relative to wild-type Gaussia luciferase without the signal peptide | Molecule |
| --- | --- |
| 0.120 | B1 |
| 0.001 | B2 |
| 0.001 | B3 |
| 0.471 | B4 |
| 1.118 | B5 |
| 0.001 | B6 |
| 0.751 | B7 |
| 0.459 | B8 |
| 1.409 | B9 |
| 0.041 | B10 |
| 0.002 | B11 |
| 2.637 | B12 |
| 0.825 | B13 |
| 0.620 | B14 |
| 0.001 | B15 |

assay: Luminescence activity assay of purified Gaussia luciferase mutants on coelenterazine; type: biochemical; set-up: key to Activity of mutant relative to wild-type Gaussia luciferase without the signal peptide: ratio of mutant luminescence intensity to wild-type Gaussia luciferase; conditions: Substrate CTZ (Table 16)
Method in brief: as §1

| Activity of mutant relative to wild-type Gaussia luciferase without the signal peptide | Molecule |
| --- | --- |
| 0.146 | B1 |
| 0.568 | B2 |
| 0.000 | B3 |
| 0.134 | B4 |
| 0.755 | B5 |
| 0.000 | B6 |
| 1.554 | B7 |
| 0.407 | B8 |
| 1.343 | B9 |
| 0.513 | B10 |
| 0.007 | B11 |
| 1.073 | B12 |
| 0.473 | B13 |
| 0.654 | B14 |
| 0.000 | B15 |

assay: Luminescence activity assay of purified Gaussia luciferase mutants on fluoro-coelenterazine; type: biochemical; set-up: key to Activity of mutant relative to wild-type Gaussia luciferase without the signal peptide: ratio of mutant luminescence intensity to wild-type Gaussia luciferase; conditions: Substrate f-CTZ (Table 16)
Experimental: In this Example, the protein concentration was determined with a BCA quantitative kit (Thermo Scientific™ Pierce™ BCA Protein Assay Kit) accurately. The purified luciferase obtained in Example 5 was diluted with diluent (50 mM Tris-HCl, pH 8.0, 100 mM NaCl, 0.1% (v/v) Tween-20) to 1 μg/mL. The diluted luciferase, taken for 10 μL, was moved into a black 96-well plate, then added with 90 μL of the substrates coelenterazine, fluoro-coelenterazine or coelenterazine derivative ZS2 (purchased from Biolab) which was diluted into 100 μM with the same diluent, and the luminescence intensity of the plate was read with a self-luminescence module of a microplate reader. The mutation site of the mutant, the measured luminescence intensity, the ratio of luminescence intensities of the advantageous mutants to the wild-type Gaussia luciferase without the signal peptide having the sequence shown in SEQ ID NO: 3 are shown in Table 15. The results of catalytic activity assay of the advantageous mutants relative to the wild-type Gaussia luciferase without the signal peptide having the sequence shown in SEQ ID NO: 3 on substrate coelenterazine are shown in FIG. 6. […] The results of catalytic activity assay of the advantageous mutants relative to the wild-type Gaussia luciferase without the signal peptide having the sequence shown in SEQ ID NO: 3 on substrate fluoro-coelenterazine are shown in FIG. 7.
The new mutant library constructed in Example 7 was screened and tested for substrate specificity. Expression and purification schemes were the same as that in Example 5, and the activity assay scheme was the same as that in Example 6. The respective catalytic activities of combinatorial mutants on coelenterazine, fluoro-coelenterazine or coelenterazine derivative ZS2, and coelenterazine derivative ZS26 (purchased from BIOLAB) were assayed, and comparisons among the substrate specificities of the combinatorial mutants were based on the ratios of catalytic activities on two corresponding substrates.

| Activity of mutant relative to wild-type Gaussia luciferase without the signal peptide | Molecule |
| --- | --- |
| 0.155 | B1 |
| 0.657 | B2 |
| 0.009 | B3 |
| 0.794 | B4 |
| 1.728 | B5 |
| 0.009 | B6 |
| 0.404 | B7 |
| 0.857 | B8 |
| 1.802 | B9 |
| 5.207 | B10 |
| 0.010 | B11 |
| 10.315 | B12 |
| 0.991 | B13 |
| 0.896 | B14 |
| 0.009 | B15 |
